Reference: article PMC9156751, “Dynamic arrest and aging of biomolecular condensates are modulated by low-complexity domains, RNA and biochemical activity” (Nature Communications, 2022)

Biological target: the molecule itself
Assay: dynamic light scattering; 5 µM Dhh1 with an excess of 5 mM ATP/MgCl2, no RNA; reference buffer 90 mM KCl, 30 mM HEPES-KOH pH 7.4, 2 mM MgCl2; Zetasizer Nano ZS, 173° backscattering; combined with microscopy

B1: mCherry-tagged Dhh1^48–425 (domain or fragment, yeast, UniProt P39517 48-425, looked up)
chain: FEDFYLKRELLMGIFEAGFEKPSPIQEEAIPVAITGRDILARAKNGTGKTAAFVIPTLEKVKPKLNKIQALIMVPTRELALQTSQVVRTLGKHCGISCMVTTGGTNLRDDILRLNETVHILVGTPGRVLDLASRKVADLSDCSLFIMDEADKMLSRDFKTIIEQILSFLPPTHQSLLFSATFPLTVKEFMVKHLHKPYEINLMEELTLKGITQYYAFVEERQKLHCLNTLFSKLQINQAIIFCNSTNRVELLAKKITDLGYSCYYSHARMKQQERNKVFHEFRQGKVRTLVCSDLLTRGIDIQAVNVVINFDFPKTAETYLHRIGRSGRFGHLGLAINLINWNDRFNLYKIEQELGTEIAAIPATIDKSLYVAENDET
notes: DEAD-box ATPase Dhh1 of yeast, residues 48-425: the two RecA domains without the N- and C-terminal low-complexity domains; also called tail-less Dhh1^48–425; LCD-lacking variant; source: E. coli BL21-Gold (DE3), purified (Ni2+ Chelating Sepharose, Superdex 75 SEC)
  binding result: binds
